Test results as given in publication PMC5141497, “NMR studies on the interactions between yeast Vta1 and Did2 during the multivesicular bodies sorting pathway” (Scientific Reports, 2016).

Molecular target: T1, Vta1 N-terminal domain (residues 1–167) (S. cerevisiae, UniProt Q06263 1-167)
T1 construct: Vta1, S. cerevisiae, N-terminal domain with two tandem MIT domains, residues 1-167; Isotope labelled (15N, 13C, 70% 2H) or unlabelled, depending on the NMR sample; also called Vta1NTD; WT Vta1NTD; source: E. coli BL21(DE3), purified (Ni-NTA, ULP1 cleavage, second Ni-NTA, Resource Q); not shown: His6, N-terminal, cleaved; SUMO, N-terminal, cleaved
T1 sequence (looked up): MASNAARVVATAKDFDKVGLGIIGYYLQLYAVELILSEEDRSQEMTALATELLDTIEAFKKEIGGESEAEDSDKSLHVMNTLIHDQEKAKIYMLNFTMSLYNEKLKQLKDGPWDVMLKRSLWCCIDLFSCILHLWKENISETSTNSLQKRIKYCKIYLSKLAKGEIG
Assay: ITC; about 0.1 mM Vta1NTD titrated with 2.0 mM Did2_(176–204) peptide, iTC-200, 25 °C, 25 mM sodium phosphate pH 7.0, 50 mM NaCl, one set of sites model
Conditions: both partners purified

Kd: 12.8 ± 1 µM
dH: -2.7 kcal/mol
stoichiometry N: 1.16 ± 0.0266
B1: Did2 fragment (176–204 aa) (peptide)
chain: WNVPEIKAKEVNVDDEKEDKLAQRLRALRG
notes: extra tryptophan inserted at the N-terminus of the peptide to estimate its concentration; Natural stretch with one added N-terminal Trp; Isotope labelled (15N, 13C) or unlabelled, depending on the NMR sample; source: E. coli BL21(DE3), purified (Ni-NTA, Resource Q, ULP1 cleavage, Superdex 75), lyophilized; not shown: His6, N-terminal, cleaved; SUMO, N-terminal, cleaved
